From US7521432B2, “Compositions and methods for identifying agents which regulate chromosomal stability, gene activation and aging” (priority 2000, dated 2009)
Several values for one entry are separate records, joined by “and”; a condition that tells them apart may be missing. Identical values can stand only once.

How the values were obtained:
[1] = tested on: Asterina miniata immature oocytes; assay: Microinjection into immature starfish oocytes, oocyte maturation (GVBD, polar body extrusion); type: cell-based; settings: for maturation and fertilization of injected egg: 10 μM 1-MA
Experimental: (§1) Asterina miniata gametes were collected and microinjections were performed as described previously (Carroll et al., 1999). Briefly, quantitative microinjection of Asterina miniata oocytes was performed at 16° C., using mercury-filled micropipets (Hiramoto, 1962; Kiehart, 1982; and see the information available at http://egg/uchc.edu/injection), allowing injection of precisely calibrated picoliter volumes into the oocytes and blastomeres. Injection volumes were 3% of the total cellular volume (for oocytes, 93 pL and for blastomeres, 47 pL). Buffer alone, purified O-acetylated ADP ribose or recombinant protein was injected into immature oocytes or one blastomere of a two cell stage embryo to a final concentration in the cytoplasm as indicated in the figure legends and Tables. 1-methyl adenine was from Sigma and was used at 10 μM.
Micro-injection assays were performed in starfish and sea urchin ooctyes. Historically echinoderm development has been a biochemically tractable and well-defined system to assess biological function of pruteins, bio-active compounds and for detailed analyses of the cell cycle. This system is attractive for its amenability to quantitative microinjection assays, cell cycle analyses, biochemical fractionation and microscopic imaging of eggs and early embryos. Initially, we hypothesized that if O-acetyl-ADP ribose produced by SIR2 was involved in SIR2's gene silencing ability, then micro-injection of O-acetyl-ADP ribose into a maturing oocyte should give rise to a phenotypic effect on the developing animal, perhaps through perturbations in normal gene expression patterns. Immature oocytes were micro-injected with HPLC-purified O-acetyl-ADP ribose or with a buffer control. The oocytes were allowed to mature by the addition of 1-methyladenine and assessed for developmental alterations.
Asterina miniata immature oocytes were microinjected with the amounts of O-acetyl ADP ribose in PBS. The maturation hormone 1-methyladenine was added (10 μM) 25-30 minutes post-injection. Oocytes were monitored for GVBD and polar body extrusion. […] The number of oocytes per treatment is given. Combined results of 3 separate experiments (3 batches of O-acetyl ADP ribose).
Asterina miniata immature oocytes were microinjected with the given enzymes in PBS. The maturation hormone 1-methyladenine was added (10 μM) 25-30 minutes post-injection. Oocytes were monitored for GVBD and polar body extrusion. […] The number of oocytes per treatment (n) is given. Data are from four separate batches of oocytes. All oocytes for a given treatment responded in the same way unless indicated otherwise (e.g. see 200 nM HST2 injection).

[2] = tested on: Asterina miniata blastomere of two cell stage embryo; assay: Microinjection into one blastomere of two-cell stage embryo, early embryonic cell division; type: cell-based
Experimental: as §1
To examine whether these SIR2 enzymes caused any phenotypic effects on early embryonic cell division, HST2 or the R45A mutant were micro-injected into one cell of the two-cell stage embryos. Asterina miniata oocytes were matured by addition of the hormone 1-methyladenine and then fertilized. One cell zygotes were then placed in injection chambers. After the first cell division, one daughter blastomere was microinjected with the indicated enzyme (see table and figure below). Embryos were monitored for further cell divisions over time. The non-injected daughter blastomere served as the internal control in each experiment. […] Again, there was a clear dosage effect that paralleled the effect observed on oocyte maturation.
Asterina miniata oocytes were matured by addition of the hormone 1-methyladenine and then fertilized. One cell zygotes were then placed in injection chambers. After the first cell division, one daughter blastomere was microinjected with the indicated enzyme. Embryos were monitored for further cell divisions over time. The non-injected daughter blastomere served as the internal control in each experiment. The number of injected embryos per treatment is given (n). Data are from two separate batches of oocytes.

acetyl-peptide = acetyl-peptide (Saccharomyces cerevisiae, UniProt P53686, R45A); assay: Catalytic efficiency of R45A mutant compared to wild type HST2; type: biochemical; settings: unpublished data
Description: To complement these studies, we micro-injected active yeast HST2 and human SIR2 enzymes instead of O-acetyl-ADP ribose. We hypothesized that if acetylated protein substrates were available in the oocyte, then micro-injected enzyme would provide a more constant source of O-acetyl-ADP ribose. As a control, a catalytically impaired mutant of HST2 (R45A) was employed to ensure that any effects were due to the catalytic activity of the enzyme. The R45A mutant is >50-fold lower in catalytic efficiency (kcat and kcat/Km for acetyl-peptide) compared to wild type enzyme (unpublished data).

[3] = final conc 200 nM in blastomere

Chain of acetyl-peptide (P53686 whole entry R45A): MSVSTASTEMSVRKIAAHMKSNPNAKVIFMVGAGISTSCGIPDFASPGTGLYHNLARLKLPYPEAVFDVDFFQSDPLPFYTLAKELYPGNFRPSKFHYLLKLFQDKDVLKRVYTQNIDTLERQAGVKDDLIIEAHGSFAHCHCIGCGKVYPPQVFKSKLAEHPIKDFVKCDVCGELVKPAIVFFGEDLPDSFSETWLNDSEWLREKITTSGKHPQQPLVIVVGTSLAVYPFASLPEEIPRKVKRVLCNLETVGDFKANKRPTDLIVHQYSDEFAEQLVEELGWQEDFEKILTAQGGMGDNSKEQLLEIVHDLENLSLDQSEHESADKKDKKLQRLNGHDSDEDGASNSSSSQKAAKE

B1: hSIRT2: human SIR2 enzyme (protein, UniProt Q8IXJ6 2-389, looked up)
NAD-dependent protein …: AEPDPSHPLETQAGKVQEAQDSDSDSEGGAAGGEADMDFLRNLFSQTLSLGSQKERLLDELTLEGVARYMQSERCRRVICLVGAGISTSAGIPDFRSPSTGLYDNLEKYHLPYPEAIFEISYFKKHPEPFFALAKELYPGQFKPTICHYFMRLLKDKGLLLRCYTQNIDTLERIAGLEQEDLVEAHGTFYTSHCVSASCRHEYPLSWMKEKIFSEVTPKCEDCQSLVKPDIVFFGESLPARFFSCMQSDFLKVDLLLVMGTSLQVQPFASLISKAPLSTPRLLINKEKAGQSDPFLGMIMGLGGGMDFDSKKAYRDVAWLGECDQGCLALAELLGWKKELEDLVRREHASIDAQSGAGVPNPSTSASPKKSPPPAKDEARTTEREKPQ
effect on oocyte maturation ([1]; above 72 nM): complete block in maturation | Effects/Notes (oocyte maturation) ([1]; final conc 25 nM): no effect was observed | Effects/Notes (oocyte maturation) ([1]; final conc 60 nM): 2 hr delay in GVBD and polar body extrusion and polar | Effects/Notes (oocyte maturation) ([1]; final conc 200 nM): complete block

B2: HST2: yeast SIR2 homolog, recombinant histidine tagged full length NAD-dependent deacetylase (protein, UniProt P53686 2-357, looked up)
NAD-dependent protein …: SVSTASTEMSVRKIAAHMKSNPNAKVIFMVGAGISTSCGIPDFRSPGTGLYHNLARLKLPYPEAVFDVDFFQSDPLPFYTLAKELYPGNFRPSKFHYLLKLFQDKDVLKRVYTQNIDTLERQAGVKDDLIIEAHGSFAHCHCIGCGKVYPPQVFKSKLAEHPIKDFVKCDVCGELVKPAIVFFGEDLPDSFSETWLNDSEWLREKITTSGKHPQQPLVIVVGTSLAVYPFASLPEEIPRKVKRVLCNLETVGDFKANKRPTDLIVHQYSDEFAEQLVEELGWQEDFEKILTAQGGMGDNSKEQLLEIVHDLENLSLDQSEHESADKKDKKLQRLNGHDSDEDGASNSSSSQKAAKE
maturation and fertilization of injected egg ([1]; 200 nM final, fertilized 4 hours later, FIG. 10A): failed to mature | injected eggs in chamber behaving the same way (failed to mature) ([1]; 200 nM final, FIG. 10A): 10 of 10 | effect on oocyte maturation ([1]; above 72 nM): complete block in maturation | Effects/Notes (oocyte maturation) ([1]; final conc 25 nM): no effect was observed | Effects/Notes (oocyte maturation) ([1]; final conc 60 nM): 2 hr delay in GVBD and polar body extrusion | Effects/Notes (oocyte maturation) ([1]; final conc 72 nM): complete block | Effects/Notes (oocyte maturation) ([1]; final conc 200 nM): complete block in 9/10; 3 hr delay 1/10 | development of injected cells ([2]; 25 nM, most cells): developed normally | division of injected blastomere ([2]; 200 nM, injected after complete cytokinesis, FIG. 10C): divided once, then both daughters stopped | effect on cell division of injected blastomere ([2]; at and above 72 nM): complete block in cell division either at the next or subsequent division | Effects: 3rd cell division ([2]; final conc 25 nM in blastomere): Normal | Effects: Next cell division ([2]; final conc 25 nM in blastomere): 4/5 normal and 1/5 as slight | Effects: other ([2]; final conc 25 nM in blastomere): Normal | Effects: 3rd cell division ([2]; final conc 72 nM in blastomere): Complete | Effects: Next cell division ([2]; final conc 72 nM in blastomere): 4/10 slight and 6/10 no | Effects: 3rd cell division [2, 3]: Complete | Effects: Next cell division [2, 3]: 2/7 slight and 5/7 no

B3: HST2 R45A: catalytically impaired mutant of HST2 (R45A) (protein, UniProt P53686 2-357, looked up, variant R45A)
NAD-dependent protein …: SVSTASTEMSVRKIAAHMKSNPNAKVIFMVGAGISTSCGIPDFASPGTGLYHNLARLKLPYPEAVFDVDFFQSDPLPFYTLAKELYPGNFRPSKFHYLLKLFQDKDVLKRVYTQNIDTLERQAGVKDDLIIEAHGSFAHCHCIGCGKVYPPQVFKSKLAEHPIKDFVKCDVCGELVKPAIVFFGEDLPDSFSETWLNDSEWLREKITTSGKHPQQPLVIVVGTSLAVYPFASLPEEIPRKVKRVLCNLETVGDFKANKRPTDLIVHQYSDEFAEQLVEELGWQEDFEKILTAQGGMGDNSKEQLLEIVHDLENLSLDQSEHESADKKDKKLQRLNGHDSDEDGASNSSSSQKAAKE
maturation and fertilization of injected egg ([1]; fertilized four hours later, FIG. 10B): matured and were fertilized normally | injected eggs in chamber behaving the same way (matured, fertilized normally) ([1]; FIG. 10B): 7 of 7 | effect on oocyte maturation ([1]; any concentration from 25-200 nM): no observed effects | Effects/Notes (oocyte maturation) ([1]; final conc 25 nM): no observed effect | Effects/Notes (oocyte maturation) ([1]; final conc 60 nM): no observed effect | Effects/Notes (oocyte maturation) ([1]; final conc 72 nM): no observed effect | Effects/Notes (oocyte maturation) ([1]; final conc 200 nM): no observed effect | phenotype of injected blastomere ([2]; any concentration): no phenotype | Effects: 3rd cell division ([2]; final conc 25 nM in blastomere): Normal | Effects: Next cell division ([2]; final conc 25 nM in blastomere): Normal | Effects: other ([2]; final conc 25 nM in blastomere): Normal | Effects: 3rd cell division ([2]; final conc 72 nM in blastomere): Normal | Effects: Next cell division ([2]; final conc 72 nM in blastomere): Normal | Effects: other ([2]; final conc 72 nM in blastomere): Normal | Effects: 3rd cell division [2, 3]: Normal | Effects: Next cell division [2, 3]: normal | Effects: other [2, 3]: Normal | lower in catalytic efficiency (kcat and kcat/Km for acetyl-peptide) compared to wild type enzyme (acetyl-peptide): > 50 fold
